Target: T1, cynomolgus monkey BTLA on cells (stably transfected 293c18 clone 1G5); cynomolgus peripheral blood T and B … (cynomolgus monkey, UniProt A0A2K5W7M7 31-289)
T1 construct: whole, on cells; also called cynomolgus monkey BTLA 293c18 cells
T1 sequence: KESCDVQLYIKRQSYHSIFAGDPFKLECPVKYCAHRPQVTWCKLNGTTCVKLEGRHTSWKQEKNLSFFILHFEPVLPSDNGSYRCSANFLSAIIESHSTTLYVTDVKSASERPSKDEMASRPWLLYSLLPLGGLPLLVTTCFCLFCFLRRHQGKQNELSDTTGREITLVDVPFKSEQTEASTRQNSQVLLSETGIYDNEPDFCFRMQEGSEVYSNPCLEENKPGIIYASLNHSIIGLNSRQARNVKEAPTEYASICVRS
Experiment: flow cytometry, AF647-labeled 6G3 IgG4 on cynomolgus monkey peripheral blood CD20+ B cells
Procedure: Blood was then aliquoted into wells and incubated with the indicated concentrations of 6G3-AF647 (APE13766.02), or APC-Mouse Anti-Human CD272 (BTLA) reference antibody (clone J168-540; BD Biosciences) for minutes at room temperature, in the dark. Following incubation, red blood cells were lysed for minutes by addition of 2.0 ml diluted BD Pharm Lyse lysing solution (BD Biosciences), samples centrifuged at 200×g for 5 minutes, washed in FACS Buffer [Dulbecco's PBS, no calcium, no magnesium (Gibco/ThermoFisher Scientific), 25 mM HEPES, pH 7.2, 0.1% BSA, sodium azide] and fixed in 4% paraformaldehyde (200 μl/sample) for 10 minutes at room temperature. Samples were washed twice in FACS Buffer and analyzed for fluorescence on a NovoCyte Quanteon flow cytometer (ACEA Biosciences, Inc.). Data were analyzed using NovoExpress Software (ACEA Biosciences, Inc.). Mean fluorescence intensity (MFI) values were graphed and fit with nonlinear regression analyses in GraphPad Prism (GraphPad Software, Inc.). MFI values for each anti-BTLA antibody on total CD3+cells are shown in FIG. 5A; MFI values for each anti-BTLA antibody on total CD20+cells are shown in FIG. 5B. […] Binding of each anti-BTLA antibody to CD3⁻ cells in FIG. 5C and FIG. 5D (green cells in the bottom quadrants of each panel) reflects the binding to CD20⁺ B cells. […]

EC50: ~1.4 nM
B1: 6G3 IgG4 anti-BTLA antibody (APE10840 / APE12839 / APE13308) (antibody, V domains shown)
VH: QVQLVQSGAEVKKPGSSVKVSCKASGYVFSTSWMNWVRQAPGQGLEWMGRIYPGDADTNYVGKFKGRVTITADKSTTTAYMELSSLRSEDTAVYFCAKSGTFNFGNYRWYFDVWGKGTTVTVSS
VL: AIQLTQSPSSLSASVGDRVTITCRVSENIYSHLAWYQQKPGKAPKLLIYAATNLALGVPSRFSGSGSGTDYTLTISSLQPEDFATYYCQLFWGPPLTFGGGTKVEIKR
notes: Humanized antibody from a mouse hybridoma, tested as human IgG4 (detected with anti-human kappa); Some assays used labelled lots (DyLight 650, AF647, biotin, DyL488); also called 6G3 antibody; APE10840.03
